Results on 14 variants are retold here after IntAct's records for PubMed 31515488.

To fix the notation:
B1: Tektin-4 (Homo sapiens), Q8WW24 (parent)
chain: MAQTVPPCELPCKEYDVARNTGAYTSSGLATASFRTSKYLLEEWFQNCYARYHQAFADRDQSERQRHESQQLATETQALAQRTQQDSTRTVGERLQDTHSWKSELQREMEALAAETNLLLAQKQRLERALDATEVPFSITTDNLQCRERREHPNLVRDHVETELLKEAELIRNIQELLKRTIMQAVSQIRLNREHKETCEMDWSDKMEAYNIDETCGRHHSQSTEVQAHPYSTTFQESASTPETRAKFTQDNLCRAQRERLASANLRVLVDCILRDTSEDLRLQCDAVNLAFGRRCEELEDARYKLHHHLHKTLREITDQEHNVAALKQAIKDKEAPLHVAQTRLYLRSHRPNMELCRDAAQFRLLSEVEELNMSLTALREKLLEAEQSLRNLEDIHMSLEKDIAAMTNSLFIDRQKCMAHRTRYPTILQLAGYQ
partner: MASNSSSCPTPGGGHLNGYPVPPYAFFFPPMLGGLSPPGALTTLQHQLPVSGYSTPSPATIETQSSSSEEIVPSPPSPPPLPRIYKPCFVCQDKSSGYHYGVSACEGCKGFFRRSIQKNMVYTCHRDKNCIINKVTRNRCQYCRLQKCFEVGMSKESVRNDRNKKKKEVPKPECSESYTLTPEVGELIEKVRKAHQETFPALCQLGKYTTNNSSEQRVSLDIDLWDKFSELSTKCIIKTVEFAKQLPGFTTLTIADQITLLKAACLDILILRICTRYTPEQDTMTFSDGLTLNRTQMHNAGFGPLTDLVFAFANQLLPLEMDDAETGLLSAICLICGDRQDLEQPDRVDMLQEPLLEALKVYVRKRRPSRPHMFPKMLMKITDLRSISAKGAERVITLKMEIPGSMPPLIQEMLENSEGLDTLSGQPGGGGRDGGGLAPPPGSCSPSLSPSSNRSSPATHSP
B2: Protein FAM9B (Homo sapiens), Q8IZU0 (parent)
chain: MAAWGKKHAGKDPVRDECEERNRFTETREEDVTDEHGEREPFAETDEHTGANTKKPEDTAEDLTAKRKRMKMDKTCSKTKNKSKHALRKKQLKRQKRDYIHSLKLLNVLEEYITDEQKEEEEEEGEEEELIRIFQEQQKKWQQYRSVRRERLKEMKLLRDQFVKALEDFEDLCDRVFSDEDSELDN
partner: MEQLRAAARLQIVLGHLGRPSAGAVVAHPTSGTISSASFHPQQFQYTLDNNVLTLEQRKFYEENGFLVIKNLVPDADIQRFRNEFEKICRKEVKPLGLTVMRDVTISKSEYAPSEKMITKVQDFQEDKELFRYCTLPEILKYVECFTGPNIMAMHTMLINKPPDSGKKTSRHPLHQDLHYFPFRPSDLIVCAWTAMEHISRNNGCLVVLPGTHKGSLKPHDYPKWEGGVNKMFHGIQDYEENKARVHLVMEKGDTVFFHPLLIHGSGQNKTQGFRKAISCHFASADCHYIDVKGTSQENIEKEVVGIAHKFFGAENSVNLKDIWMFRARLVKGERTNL
B3: Fibronectin type III and SPRY domain-containing protein 2 (Homo sapiens), A1L4K1 (parent)
chain: MEEESGEELGLDRSTPKDFHFYHMDLYDSEDRLHLFPEENTRMRKVVQAEMANESRGAGDGKAQRDLQEEVDELVHLYGLEDDHELGDEFVDENIPRTGVSEYPPYMMKRRDPAREQRDWRLSGEAAEAEDLGFGGWGSAGQCQDLREAYRYTHGRASEEYECYVIPEEEDEEEAADVFCVTCKTPIRAFQKVFDEHKEHEVIPLNEALESAKDEIHKNMYKLEKQIIEMENFANHLEEVFITVEENFGKQEQNFESHYNEILETLAQKYEEKIQALGEKKKEKLEALYGQLVSCGENLDTCKELMETIEEMCHEEKVDFIKDAVAMADRLGKFLKTKTDVEISAQPEFEDQTLDFSDVEQLMGSINTIPAPSAPVINPQVPNSATGSSVRVCWSLYSDDTVESYQLSYRPVQDSSPGTDQAEFTVTVKETYCSVTNLVPNTQYEFWVTAHNRAGPSPSSERAVYMTAPSPPIIKTKEIRSCEEAVLICWESGNLNPVDSYTVELTQAESPEASGVTESVVGIPTCESVVQLQPGRSYIIYVRALNMGGPSVRSEPATVHTIGSYFRLNKDTCHPWLTISEDGLTAVRSERRTPARELSPSDTHFTRCVAVMGNLIPVRGHHYWEVEVDEHLDYRVGVAFADVRKQEDLGANCLSWCMRHTFASSRHKYEFLHNRTTPDIRITVPPKKIGILLDYEHSKLSFFNVDLSQHLYTFSCQLHEFVHPCFSLEKPGCLKVHNGISMPKHVTFY
partner: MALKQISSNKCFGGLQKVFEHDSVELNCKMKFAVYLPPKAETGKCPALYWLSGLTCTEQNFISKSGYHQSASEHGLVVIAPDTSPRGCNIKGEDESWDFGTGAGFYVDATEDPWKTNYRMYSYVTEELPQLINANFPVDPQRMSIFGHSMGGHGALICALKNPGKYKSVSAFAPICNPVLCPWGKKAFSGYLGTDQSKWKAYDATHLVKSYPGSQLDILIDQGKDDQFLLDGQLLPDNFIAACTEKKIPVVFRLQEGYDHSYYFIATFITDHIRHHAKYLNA
B4: Transmembrane protein 79 (Homo sapiens), Q9BSE2 (parent)
chain: MTEQETLALLEVKRSDSPEKSSPQALVPNGRQPEGEGGAESPGAESLRVGSSAGSPTAIEGAEDGLDSTVSEAATLPWGTGPQPSAPFPDPPGWRDIEPEPPESEPLTKLEELPEDDANLLPEKAARAFVPIDLQCIERQPQEDLIVRCEAGEGECRTFMPPRVTHPDPTERKWAEAVVRPPGCSCGGCGSCGDREWLRAVASVGAALILFPCLLYGAYAFLPFDVPRLPTMSSRLIYTLRCGVFATFPIVLGILVYGLSLLCFSALRPFGEPRREVEIHRRYVAQSVQLFILYFFNLAVLSTYLPQDTLKLLPLLTGLFAVSRLIYWLTFAVGRSFRGFGYGLTFLPLLSMLMWNLYYMFVVEPERMLTATESRLDYPDHARSASDYRPRPWG
B5: Filamin-binding LIM protein 1 (Homo sapiens), Q8WUP2 (parent)
chain: MASKPEKRVASSVFITLAPPRRDVAVAEEVRQAVCEARRGRPWEAPAPMKTPEAGLAGRPSPWTTPGRAAATVPAAPMQLFNGGCPPPPPVLDGEDVLPDLDLLPPPPPPPPVLLPSEEEAPAPMGASLIADLEQLHLSPPPPPPQAPAEGPSVQPGPLRPMEEELPPPPAEPVEKGASTDICAFCHKTVSPRELAVEAMKRQYHAQCFTCRTCRRQLAGQSFYQKDGRPLCEPCYQDTLERCGKCGEVVRDHIIRALGQAFHPSCFTCVTCARCIGDESFALGSQNEVYCLDDFYRKFAPVCSICENPIIPRDGKDAFKIECMGRNFHENCYRCEDCRILLSVEPTDQGCYPLNNHLFCKPCHVKRSAAGCC
partner: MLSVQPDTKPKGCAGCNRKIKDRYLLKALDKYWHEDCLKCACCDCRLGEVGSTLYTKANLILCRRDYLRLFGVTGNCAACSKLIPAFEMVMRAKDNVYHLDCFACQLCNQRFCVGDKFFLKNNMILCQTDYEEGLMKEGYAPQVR
B6: Dendritic cell nuclear protein 1 (Homo sapiens), Q8TF63 (parent)
chain: MHYGAATHIQNSRSHGLETVPGHQRLERGAGGETPEFPGCHSPAPPENFGNELLPLSAPLQGLSEGLYPPGRNKTLPAGVLREGAVQFLHRGLCNSNLSSEASARPSGTQDELHSSRRKTGQTRREGARKHLVCSFRLYPFTVHTVSPGNSHLALYQVFKAVKLCPSETSFFLSRKSLKSSDPWHPPSLSPNSWNRQAGFRAWSSHLISLSLTCSDSQSRRVSSSQQPPLHSLSSHRRAAHVPE

The first test covers variants of B1. Particulars: with rara_human RARA.
As for N409K, the “effect of a mutation on the interaction” value is on record as “with no effect”.
Still for that read-out and setting: as for D403N, the entry is “with no effect”; as for R64W, “with no effect”.

Variants of B2 are the subject of a further test. The conditions noted are these: with pahx_human PHYH.
Take R23H: the “effect of a mutation on the interaction” value was “with no effect”.

The variants in the next test derive from B3. Particulars: with estd_human ESD.
Take E720K: the “effect of a mutation on the interaction” value is “with no effect”.

Variants of B4 are the subject of a further test. The conditions noted are these: with pspc_human SFTPC.
As for V147M, the “effect of a mutation on the interaction” value is “with no effect”.
For S104T, the “effect of a mutation on the interaction” value is “with no effect”.
On the same count and under the same terms, as for D144G, the entry is “with no effect”.

In another test the parent is B4. The conditions noted are these: with sarco_human SLN.
V147M: the “effect of a mutation on the interaction” value is “with no effect”.
On to S104T, for which the “effect of a mutation on the interaction” value was “with no effect”.
On to D144G, for which the “effect of a mutation on the interaction” value is “with no effect”.

A further test covers variants of B4. Particulars: with sc22a_human SEC22A.
On to V147M, for which the “effect of a mutation on the interaction” value was “with no effect”.
Consider S104T, for which the “effect of a mutation on the interaction” value is listed as “with no effect”.
Regarding D144G, the “effect of a mutation on the interaction” value is on record as “with no effect”.

Variants of B4 are the subject of a further test. Particulars: with tx264_human TEX264, Q9Y6I9.
Chain of tx264_human TEX264, Q9Y6I9 (Q9Y6I9 whole entry): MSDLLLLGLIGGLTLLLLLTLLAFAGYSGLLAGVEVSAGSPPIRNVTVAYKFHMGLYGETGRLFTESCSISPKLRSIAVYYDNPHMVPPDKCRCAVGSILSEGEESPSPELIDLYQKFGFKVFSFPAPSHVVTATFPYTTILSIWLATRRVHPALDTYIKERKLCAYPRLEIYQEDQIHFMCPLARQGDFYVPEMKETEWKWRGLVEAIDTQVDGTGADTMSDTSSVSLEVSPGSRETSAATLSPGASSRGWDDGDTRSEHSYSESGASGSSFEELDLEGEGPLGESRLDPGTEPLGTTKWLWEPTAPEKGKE
For V147M, the “effect of a mutation on the interaction” value is reported as “with no effect”.
With S104T, the “effect of a mutation on the interaction” value is on record as “with no effect”.
Regarding D144G, the “effect of a mutation on the interaction” value is on record as “with no effect”.

In the next test the parent is B4. The conditions noted are these: with tnmd_human TNMD.
As to V322I, the “effect of a mutation on the interaction” value is on record as “with no effect”.

Variants of B5 are the subject of the next test. Particulars: with lmo3_human LMO3, Q8TAP4.
Take E233K: the “effect of a mutation on the interaction” value is listed as “with no effect”.
In the case of V174I, the “effect of a mutation on the interaction” value is “with no effect”.

The next test covers variants of B5. The conditions noted are these: with lmo3_human LMO3, Q8TAP4. The source holds these as a separate data set.
In the case of Y204C, the “effect of a mutation on the interaction” value was “disrupting interaction strength”.

Variants of B6 are the subject of the next test. The conditions noted are these: with mdfi_human MDFI.
P183T: the “effect of a mutation on the interaction” value was “with no effect”.
S135C: the “effect of a mutation on the interaction” value is “with no effect”.
